Columns and labels:
[1] = biological target: PD-L1 on PD-L1 cells (Promega, CS178103; PD1/PD-L1 Blockade Bioassay J1250/J1255) (UniProt Q9NZQ7 19-290); assay: cell-based or functional assay
Cyno PD-L1-rCD4-His = biological target: T1, Cyno PD-L1-rCD4-His (cynomolgus); assay: SPR, IgG1 from culture supernatant
T1 construct: The entry as printed begins with the signal peptide; also called cynomolgus PD-L1-rCD4-His

human PD-L1-rCD4-His = biological target: T2, human PD-L1-rCD4-His (human); assay: SPR, IgG1 from culture supernatant
T2 construct: Human PD-L1 fused to the monomeric C-terminal rat CD4 domains 3 and 4 tag and His tag; made in HEK293; The entry as printed begins with the signal peptide (MRIF...); also called hPD-L1-rCD4-His; hu-PD-L1-rCD4-His

[2] = biological target: T3, biotinylated human PD-L1-Avi-His (Acro Biosystems, PD1-H82E5) (human, UniProt Q9NZQ7 19-238, biotinylated); assay: SPR as in Example 3.2, mAb on Protein A chip
T3 construct: Bought
Method: (§1) Briefly, the anti-PD-L1 mAbs, diluted in HBS-EP buffer (GE Healthcare, BR100188) at 2 μg/ml, were injected individually on flows cell 2, 3 and 4 of a Protein A chip (GE Healthcare, 29127556) at 30 μl/min to achieve a final response of approximately 110 RU. The recombinant human, cynomolgus and mouse PD-L1-His antigens, diluted in HBS-EP buffer, were injected on flow cell 1, 2, 3 or 4 as appropriate at a concentration range of 81 nM to 0.037 nM with 3-fold dilutions for 4 min at 75 μl/min and then allowed to dissociate in buffer for 10 min. Regeneration was achieved by injecting 10 mM glycine-HCL pH1.5 (GE Healthcare, Human Antibody Capture Kit, BR00356) for 30 sec at a rate of 30 μl/min. Subtracted data (flow cell 2-flow cell 1, flow cell 3-flow cell 1, or flow cell 4-flow cell 1) were analysed using BIAevaluation 3.2 Software (GE Healthcare) to identify binding using the model 1:1 binding with mass transfer, with refractive index (RI) constant 0. To determine the affinities of the mouse PD-L1 binding curves, the Rmax of the corresponding human binding profiles was used.

[3] = biological target: T4, cynomolgus PD-L1-His (Acro Biosystems, PD1-C52H4) (cynomolgus, UniProt G7PSE7 19-239); assay: SPR as in Example 3.2, mAb on Protein A chip
T4 construct: Bought; also called Cyno PD-L1-His
Method: as §1

T1 sequence (chain, as listed by the source limits assumed): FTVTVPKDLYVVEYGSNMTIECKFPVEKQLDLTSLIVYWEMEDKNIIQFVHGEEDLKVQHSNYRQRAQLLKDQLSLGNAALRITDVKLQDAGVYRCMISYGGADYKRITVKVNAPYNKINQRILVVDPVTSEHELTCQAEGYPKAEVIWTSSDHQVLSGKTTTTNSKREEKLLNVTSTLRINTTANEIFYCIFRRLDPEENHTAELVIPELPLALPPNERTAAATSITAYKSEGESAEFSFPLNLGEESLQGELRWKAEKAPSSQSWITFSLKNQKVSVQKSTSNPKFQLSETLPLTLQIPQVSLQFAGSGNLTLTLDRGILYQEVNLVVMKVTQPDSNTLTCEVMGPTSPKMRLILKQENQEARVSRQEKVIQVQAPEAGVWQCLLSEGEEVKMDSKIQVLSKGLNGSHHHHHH
T2 sequence (chain, as listed by the source limits assumed): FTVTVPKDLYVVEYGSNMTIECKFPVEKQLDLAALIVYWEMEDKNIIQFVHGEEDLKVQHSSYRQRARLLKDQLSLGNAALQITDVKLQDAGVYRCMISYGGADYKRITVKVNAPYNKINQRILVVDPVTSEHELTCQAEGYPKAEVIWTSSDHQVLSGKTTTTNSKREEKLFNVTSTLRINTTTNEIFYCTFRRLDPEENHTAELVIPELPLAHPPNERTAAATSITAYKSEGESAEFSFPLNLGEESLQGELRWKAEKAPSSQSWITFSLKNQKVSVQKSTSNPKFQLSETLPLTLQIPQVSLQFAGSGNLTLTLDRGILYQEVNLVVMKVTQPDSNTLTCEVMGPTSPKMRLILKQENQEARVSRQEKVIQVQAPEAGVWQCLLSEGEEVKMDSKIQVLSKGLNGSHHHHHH
T3 sequence (Q9NZQ7 19-238 limits assumed): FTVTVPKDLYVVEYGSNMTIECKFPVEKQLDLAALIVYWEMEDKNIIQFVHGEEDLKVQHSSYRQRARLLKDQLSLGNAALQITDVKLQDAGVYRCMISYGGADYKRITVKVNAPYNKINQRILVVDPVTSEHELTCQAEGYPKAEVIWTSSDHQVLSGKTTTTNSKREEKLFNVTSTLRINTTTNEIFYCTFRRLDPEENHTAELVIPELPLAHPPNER
T4 sequence (G7PSE7 entry or part of it): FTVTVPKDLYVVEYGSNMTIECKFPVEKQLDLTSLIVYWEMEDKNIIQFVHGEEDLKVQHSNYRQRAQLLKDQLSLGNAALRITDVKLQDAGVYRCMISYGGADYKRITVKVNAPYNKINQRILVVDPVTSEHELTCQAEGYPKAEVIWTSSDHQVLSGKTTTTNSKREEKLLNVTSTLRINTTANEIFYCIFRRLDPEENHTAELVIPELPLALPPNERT
PD-L1 on PD-L1 cells (Promega, CS178103; PD1/PD-L1 Blockade Bioassay J1250/J1255), sequence (Q9NZQ7 19-290): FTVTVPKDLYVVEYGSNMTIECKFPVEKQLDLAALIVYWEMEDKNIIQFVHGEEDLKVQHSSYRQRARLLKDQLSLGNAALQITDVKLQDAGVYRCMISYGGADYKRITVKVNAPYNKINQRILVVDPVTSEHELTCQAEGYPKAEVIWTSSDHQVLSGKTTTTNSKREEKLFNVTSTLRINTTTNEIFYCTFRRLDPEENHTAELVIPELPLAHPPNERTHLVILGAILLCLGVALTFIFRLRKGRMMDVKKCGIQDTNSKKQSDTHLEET

Binder | IC50 (nM), PD1/PD-L1 Blockade Bioassay [1] | Kd (Cyno PD-L1-rCD4-His) | Kd (human PD-L1-rCD4-His) | Kd [2] | Kd [3]
G1/280_02_G02_NS (antibody, human IgG1, IgG1 without LALA, lambda light chain; NG to NS variant of G1/280_02_G02) heavy: not shown light: QSALTQPASVSGSPGQSITISCTGTSSDVGGYNSVSWYQQFPGKAPKLMIFEVTNRPSGVSDRFSGSKSDNTASLTISGLQAEDEAEYYCSSFKRGSTLVVFGGGTKLTVLGQPAAAPSVTLFPPSSEELQANKATLVCLISDFYPGAVTVAWKADSSPVKAGVETTTPSKQSNNKYAASSYLSLTPEQWKSHRSYSCQVTHEGSTVEKTVAPTECS | 0.51 nM | 1.8 nM | 1.2 nM | – | –
G1AA/G12v2 (antibody, human IgG1, kappa, L234A L235A, IgG1 with LALA, kappa light chain) heavy: not shown light: DIQMTQSPSTLSASVGDRVTITCRASQSISGRLAWYQQKPGKAPNLLIYEASNLESGVPSRFSGSGSGTEFTLTISSLQPEDFATYYCQQSYSWPRTFGQGTKVEIKRTVAAPSVFIFPPSDEQLKSGTASVVCLLNNFYPREAKVQWKVDNALQSGNSQESVTEQDSKDSTYSLSSTLTLSKADYEKHKVYACEVTHQGLSSPVTKSFNRGEC | – | – | – | 0.44 nM | 0.75 nM
G1/929_01_A11 (antibody, human IgG1, IgG1; said to be the same as G1AA/G12v2 but without LALA) heavy: not shown light: DIQMTQSPSTLSASVGDRVTITCRASQSISGRLAWYQQKPGKAPNLLIYEASNLESGVPSRFSGSGSGTEFTLTISSLQPEDFATYYCQQSYSWPRTFGQGTKVEIKRTAAAAPSVFIFPPSDEQLKSGTASVVCLLNNFYPREAKVQWKVDNALQSGNSQESVTEQDSKDSTYSLSSTLTLSKADYEKHKLYACEVTHQGLSSPVTKSFNRGEC | – | 0.57 nM | 0.51 nM | – | –
G1/929_01_A10 (antibody, human IgG1, V domains shown, IgG1) VH: EVQLVQSGAEVKRPGASVKVSCKASGYTFTSYGISWVRQAPGQGLEWMGWISAYGGSTNYAQKLQGRVTMTTDTSTSTAYMELRSLRSDDTAVYYCARDLFPTIFGVSYYYYWGQGTLVTVSS VL: DIQMTQSPSTLSASVGDRVTITCRASQSISGRLAWYQQKPGKAPNLLIYEASNLESGVPSRFSGSGSGTEFTLTISSLQPEDFATYYCQQSYSWPRTFGQGTKVEIKR | – | 0.6 nM | 0.42 nM | – | –
G1/929_01_A12 (antibody, human IgG1, V domains shown, IgG1) VH: EVQLVQSGAEVKRPGASVKVSCKASGYTFTSYGISWVRQAPGQGLEWMGWISAYSGNANYAQKLQGRVTMTTDTSTSTAYMELRSLRSDDTAVYYCARDLFPTIFGVSYYYYWGQGTLVTVSS VL: DIQMTQSPSTLSASVGDRVTITCRASQSISGRLAWYQQKPGKAPNLLIYEASNLESGVPSRFSGSGSGTEFTLTISSLQPEDFATYYCQQSYSWPRTFGQGTKVEIKR | – | 0.66 nM | 0.51 nM | – | –
G1/929_01_A01 (antibody, human IgG1, V domains shown, IgG1; The heavy chain as printed has T28) VH: EVQLVQSGAEVKRPGASVKVSCKASGYTFTSYGISWVRQAPGQGLEWMGWISAYGGSTNYAQKLQGRVTMTTDTSTSTAYMELRSLRSDDTAVYYCARDLFPTIFGVSYYYYWGQGTLVTVSS VL: DIQMTQSPSTLSASVRDRVIITCRASQSIGNRLAWYQHKPGKAPKLLIYEASTSETGVPSRFSGSGSGTDFTLTISSLQPEDFATYYCQQSYSTPYTFGQGTKLEIKR | – | 3.18 nM | 2.66 nM | – | –
G1AA/E12v2 (antibody, human IgG1, kappa, L234A L235A, V domains shown, IgG1 with LALA, kappa light chain; SGGT at 54-57 and proline at Kabat 28 of VH) VH: EVQLVQSGAEVKRPGASVKVSCKASGYPFTSYGISWVRQAPGQGLEWMGWISAYSGGTNYAQKLQGRVTMTTDTSTSTAYMELRSLRSDDTAVYYCARDLFPTIFGVSYYYYWGQGTLVTVSS VL: DIQMTQSPSTLSASVRDRVIITCRASQSIGNRLAWYQHKPGKAPKLLIYEASTSETGVPSRFSGSGSGTDFTLTISSLQPEDFATYYCQQSYSTPYTFGQGTKLEIKR | – | – | – | 0.21 nM | 0.37 nM
G1/929_01_A05 (antibody, human IgG1, V domains shown, IgG1) VH: EVQLVQSGAEVKRPGASVKVSCKASGYTFTSYGISWVRQAPGQGLEWMGWISAYSGGTNYAQKLQGRVTMTTDTSTSTAYMELRSLRSDDTAVYYCARDLFPTIFGVSYYYYWGQGTLVTVSS VL: DIQMTQSPSTLSASVGDRVTITCRASQSISGRLAWYQQKPGKAPNLLIYEASNLESGVPSRFSGSGSGTEFTLTINSLQPDDFATYYCQQANTFPRVSFGGGTKVEIKR | – | 0.62 nM | 0.55 nM | – | –
G1/929_01_A07 (antibody, human IgG1, V domains shown, IgG1; GGST variant of G1/894_08_E05) VH: EVQLVQSGAEVKRPGASVKVSCKASGYTFTSYGISWVRQAPGQGLEWMGWISAYGGSTNYAQKLQGRVTMTTDTSTSTAYMELRSLRSDDTAVYYCARDLFPTIFGVSYYYYWGQGTLVTVSS VL: DIQMTQSPSTLSASVGDRVTITCRASQSISGRLAWYQQKPGKAPNLLIYEASNLESGVPSRFSGSGSGTEFTLTISSLQPEDFATYYCQQSYSTPRVTFGQGTKVEIKR | – | 0.59 nM | 0.47 nM | – | –
G1/894_08_A05 (antibody, human IgG1, V domains shown, IgG1 without LALA, kappa light chain) VH: EVQLVQSGAEVKRPGASVKVSCKASGYTFTSYGISWVRQAPGQGLEWMGWISAYNSNTNYAQKLQGRVTMTTDTSTSTAYMELRSLRSDDTAVYYCARDLFPTIFGVSYYYYWGQGTLVTVSS VL: DIQMTQSPSTLSASVGDRVTITCRASQSISGRLAWYQQKPGKAPNLLIYEASNLESGVPSRFSGSGSGTEFTLTINSLQPDDFATYYCQQANTFPRVSFGGGTKVEIKR | – | 0.57 nM | 0.42 nM | – | –
G1/929_01_A03 (antibody, human IgG1, V domains shown, IgG1) VH: EVQLVQSGAEVKRPGASVKVSCKASGYTFTSYGISWVRQAPGQGLEWMGWISAYSGNANYAQKLQGRVTMTTDTSTSTAYMELRSLRSDDTAVYYCARDLFPTIFGVSYYYYWGQGTLVTVSS VL: DIQMTQSPSTLSASVRDRVIITCRASQSIGNRLAWYQHKPGKAPKLLIYEASTSETGVPSRFSGSGSGTDFTLTISSLQPEDFATYYCQQSYSTPYTFGQGTKLEIKR | – | 3.31 nM | 2.66 nM | – | –
G1/929_01_A09 (antibody, human IgG1, V domains shown, IgG1; SGNA variant of G1/894_08_E05) VH: EVQLVQSGAEVKRPGASVKVSCKASGYTFTSYGISWVRQAPGQGLEWMGWISAYSGNANYAQKLQGRVTMTTDTSTSTAYMELRSLRSDDTAVYYCARDLFPTIFGVSYYYYWGQGTLVTVSS VL: DIQMTQSPSTLSASVGDRVTITCRASQSISGRLAWYQQKPGKAPNLLIYEASNLESGVPSRFSGSGSGTEFTLTISSLQPEDFATYYCQQSYSTPRVTFGQGTKVEIKR | – | 0.57 nM | 0.49 nM | – | –
G1/929_01_A04 (antibody, human IgG1, V domains shown, IgG1; GGST variant of G1/894_08_A05) VH: EVQLVQSGAEVKRPGASVKVSCKASGYTFTSYGISWVRQAPGQGLEWMGWISAYGGSTNYAQKLQGRVTMTTDTSTSTAYMELRSLRSDDTAVYYCARDLFPTIFGVSYYYYWGQGTLVTVSS VL: DIQMTQSPSTLSASVGDRVTITCRASQSISGRLAWYQQKPGKAPNLLIYEASNLESGVPSRFSGSGSGTEFTLTINSLQPDDFATYYCQQANTFPRVSFGGGTKVEIKR | – | 0.6 nM | 0.47 nM | – | –
G1/929_01_A06 (antibody, human IgG1, V domains shown, IgG1) VH: EVQLVQSGAEVKRPGASVKVSCKASGYTFTSYGISWVRQAPGQGLEWMGWISAYSGNANYAQKLQGRVTMTTDTSTSTAYMELRSLRSDDTAVYYCARDLFPTIFGVSYYYYWGQGTLVTVSS VL: DIQMTQSPSTLSASVGDRVTITCRASQSISGRLAWYQQKPGKAPNLLIYEASNLESGVPSRFSGSGSGTEFTLTINSLQPDDFATYYCQQANTFPRVSFGGGTKVEIKR | – | 0.58 nM | 0.45 nM | – | –
G1/929_01_A08 (antibody, human IgG1, IgG1; SGGT variant of G1/894_08_E05; said to be the same as G1AA/E05v2 but without the LALA mutation) heavy: not shown light: DIQMTQSPSTLSASVGDRVTITCRASQSISGRLAWYQQKPGKAPNLLIYEASNLESGVPSRFSGSGSGTEFTLTISSLQPEDFATYYCQQSYSTPRVTFGQGTKVEIKRTAAAAPSVFIFPPSDEQLKSGTASVVCLLNNFYPREAKVQWKVDNALQSGNSQESVTEQDSKDSTYSLSSTLTLSKADYEKHKLYACEVTHQGLSSPVTKSFNRGEC | – | 0.65 nM | 0.5 nM | – | –
G1AA/lambdav3 (antibody, human IgG1, L234A L235A, V domains shown, IgG1 with LALA, lambda light chain; also called G1AA/lamdav3) VH: EVQLVQSGAEVKRPGASVKVSCKASGYTFTSYGISWVRQAPGQGLEWMGWISAYSGGTNYAQKLQGRVTMTTDTSTSTAYMELRSLRSDDTAVYYCARDLFPTIFGVSYYYYWGQGTLVTVSS VL: QSALTQPASVSGSPGQSITISCTGTSSDVGGYNYVSWYQQFPGKAPKLMIFEVTNRPSGVSDRFSGSKSDNTASLTISGLQAEDEAEYYCSSFKRGSTLVVFG | – | – | – | 1.34 nM | 2.45 nM
G1AA/E05v2 (antibody, human IgG1, kappa, L234A L235A, IgG1 with LALA, kappa light chain) heavy: not shown light: DIQMTQSPSTLSASVGDRVTITCRASQSISGRLAWYQQKPGKAPNLLIYEASNLESGVPSRFSGSGSGTEFTLTISSLQPEDFATYYCQQSYSTPRVTFGQGTKVEIKRTVAAPSVFIFPPSDEQLKSGTASVVCLLNNFYPREAKVQWKVDNALQSGNSQESVTEQDSKDSTYSLSSTLTLSKADYEKHKVYACEVTHQGLSSPVTKSFNRGEC | – | – | – | 0.5 nM | 0.89 nM
